# Patent publication US20230212319A1, “NOVEL ANTIGEN BINDING DOMAINS AND SYNTHETIC ANTIGEN RECEPTORS INCORPORATING THE SAME” (University of Southern California, priority 2020, published 2023)
# B1: 22257 (protein)
# chain: MGPRLLFWALLCLLGTGPVEAGVTQSPTHLIKTRGQQATLRCSPISGHTSVYWYQQALGLGLQFLLWYDEGEERNRGNFPPRFSGRQFPNYSSELNVNALELEDSALYLCASSLGGPRGLAGLRGDEQFFGPGTRLTVLEGTGGGGSGGGEFDIQMTQSPSSLSASVGDRVTITCKASDHINNWLAWYQQKPGQAPKLLIYGATTLETGVPSRFSGSGSGTDYTLTISSLQPEDFATYYCQQSWNTPWTFGQGTKLEIKRLEGQPKANPTVTLFPPSSEELQANKATLVCLISDFYPGAVTVAWKADGSPVKAGVETTKPSKQSNNKYAASSYLSLTPEQWKSHRSYSCQVTHEGSTVEKTVAPTECSGRADCGFTSESYQQGVLSATILYEILLGKATLYAVLVSALVLMAMVKRKDSRGRAKRSGSGATNFSLLKQAGDVEENPGPTSATMDWIWRILFLVGAATGAHSGPQVQLQESGGGLAQAGGSLRLSCAASGRTFSMGWFRQAPGKEREFVAAITYSGGSPYYASSVRGRFTISRDNAKNTVYLQMNSLKPEDTAVYYCAANPTYGSDWNAENWGQGTQVTVSSGSGGGGSGGGGSGGGGSFEQVQLQQPGAELVKPGASVKMSCKASGYAFSSYWINWMKQKPGQGLEWIGQIYPGDGDTNYNGKFKGRATLTADTSSSTAYMQLSSLTSEDSAVYFCARSITTVVGCAMDYWGQGTSVTVSSTRASTKGPSVFPLAPSSKSTSGGTAALGCLVKDYFPEPVTVSWNSGALTSGVHTFPAVLQSSGLYSLSSVVTVPSSSLGTQTYICNVNHKPSNTKVDKRVEPKSCIPEDTFFPSPESSCDVKLVEKSFETDTNLNFQNLSVIGFRILLLKVAGFNLLMTLRLWSSRAKRSGSGVKQTLNFDLLKLAGDVESNPGPSRGHMTEYKPTVRLATRDDVPRAVRTLAAAFADYPATRHTVDPDRHIERVTELQELFLTRVGLDIGKVWVADDGAAVAVWTTPESVEAGAVFAEIGPRMAELSGSRLAAQQQMEGLLAPHRPKEPAWFLATVGVSPDHQGKGLGSAVVLPGVEAAERAGVPAFLETSAPRNLPFYERLGFTVTADVEVPEGPRTWCMTRKPGA
# B2: SEQ ID NO: 23330: targeting construct coexpressing a TCRα constant chain with a SAR on TFP backbone targeting BCMA and CD22, directed to the TRAC locus (protein)
# chain: FKIPIEELEDRVFVNCNTSITWVEGTVGTLLSDITRLDLGKRILDPRGIYRCNGTDIYKDKESTVQVHYRMCQSCVELDPATVA
# B3: 22146 (protein)
# chain: MALPVTALLLPLALLLHAARPACEVQLLESGGGLIQPGGSLRLSCAASGFTFSSHAMTWVRQAPGKGLEWVSAISGSGDYTHYADSVKGRFTISRDNSKNTVYLQMNSLRAEDSAVYYCAKDEDGGSLLGHRGQGTLVTVSSGTGGGGSGGGGSGGGGSEFDIQMTQSPSSLSASVGDRVTITCRASQDISNYLNWYQQKPGKAVKLLIYYTSILHSGVPSRFSGSGSGTDYTLTISSLQPEDFATYFCQQGNTLPWTFGGGTKVEIKLEGQPKANPTVTLFPPSSEELQANKATLVCLISDFYPGAVTVAWKADGSPVKAGVETTKPSKQSNNKYAASSYLSLTPEQWKSHRSYSCQVTHEGSTVEKTVAPTECSGRADCGFTSESYQQGVLSATILYEILLGKATLYAVLVSALVLMAMVKRKDSRGRAKRSGSGATNFSLLKQAGDVEENPGPTSATMDWIWRILFLVGAATGAHSGPQVQLQESGGGLAQAGGSLRLSCAASGRTFSMGWFRQAPGKEREFVAAITYSGGSPYYASSVRGRFTISRDNAKNTVYLQMNSLKPEDTAVYYCAANPTYGSDWNAENWGQGTQVTVSSGSGGGGSGGGGSGGGGSFEVQLVESGGGLVKPGGSLKLSCAASGFAFSIYDMSWVRQAPGKGLEWVAYISSGGGTTYYPDTVKGRFTISRDNAKNTLYLQMSSLRAEDTAMYYCARHSGYGSSYGVLFAYWGQGTLVTVSSTRASTKGPSVFPLAPSSKSTSGGTAALGCLVKDYFPEPVTVSWNSGALTSGVHTFPAVLQSSGLYSLSSVVTVPSSSLGTQTYICNVNHKPSNTKVDKRVEPKSCIPEDTFFPSPESSCDVKLVEKSFETDTNLNFQNLSVIGFRILLLKVAGFNLLMTLRLWSSRAKRSGSGVKQTLNFDLLKLAGDVESNPGPSRGHMTEYKPTVRLATRDDVPRAVRTLAAAFADYPATRHTVDPDRHIERVTELQELFLTRVGLDIGKVWVADDGAAVAVWTTPESVEAGAVFAEIGPRMAELSGSRLAAQQQMEGLLAPHRPKEPAWFLATVGVSPDHQGKGLGSAVVLPGVEAAERAGVPAFLETSAPRNLPFYERLGFTVTADVEVPEGPRTWCMTRKPGA
# B4: 22256 (protein)
# chain: MGPRLLFWALLCLLGTGPVEAGVTQSPTHLIKTRGQQATLRCSPISGHTSVYWYQQALGLGLQFLLWYDEGEERNRGNFPPRFSGRQFPNYSSELNVNALELEDSALYLCASSLGGPRGLAGLRGDEQFFGPGTRLTVLEGTGGGGSGGGEFDIQMTQSPSSLSASVGDRVTITCKASDHINNWLAWYQQKPGQAPKLLIYGATTLETGVPSRFSGSGSGTDYTLTISSLQPEDFATYYCQQSWNTPWTFGQGTKLEIKRLEDLKNVFPPEVAVFEPSEAEISHTQKATLVCLATGFYPDHVELSWWVNGKEVHSGVCTDPQPLKEQPALNDSRYCLSSRLRVSATFWQNPRNHFRCQVQFYGLSENDEWTQDRAKPVTQIVSAEAWGRADCGFTSESYQQGVLSATILYEILLGKATLYAVLVSALVLMAMVKRKDSRGRAKRSGSGATNFSLLKQAGDVEENPGPTSATMDWIWRILFLVGAATGAHSGPEVQLVESGGGLVQAGGSLRLSCAASGRTFSMGWFRQAPGKEREFVAAITYSGGSPYYADSVKGRFTISRDNAKNTVYLQMNSLKPEDTAVYYCAANPTYGSDWNAENWGQGTQVTVSSGSGGGGSGGGGSGGGGSFEQVQLQQPGAELVKPGASVKMSCKASGYAFSSYWINWMKQKPGQGLEWIGQIYPGDGDTNYNGKFKGRATLTADTSSSTAYMQLSSLTSEDSAVYFCARSITTVVGCAMDYWGQGTSVTVSSTRIQNPDPAVYQLRDSKSSDKSVCLFTDFDSQTNVSQSKDSDVYITDKCVLDMRSMDFKSNSAVAWSNKSDFACANAFNNSIIPEDTFFPSPESSCDVKLVEKSFETDTNLNFQNLSVIGFRILLLKVAGFNLLMTLRLWSSRAKRSGSGVKQTLNFDLLKLAGDVESNPGPSRGHMTEYKPTVRLATRDDVPRAVRTLAAAFADYPATRHTVDPDRHIERVTELQELFLTRVGLDIGKVWVADDGAAVAVWTTPESVEAGAVFAEIGPRMAELSGSRLAAQQQMEGLLAPHRPKEPAWFLATVGVSPDHQGKGLGSAVVLPGVEAAERAGVPAFLETSAPRNLPFYERLGFTVTADVEVPEGPRTWCMTRKPGA
# How the values were obtained:
# HepG2 cells = format: cell-based
# target cells = assay: Xenograft model in immunodeficient mice; format: in vivo; conditions: TRAC-targeted T cells, versus construct SEQ ID NO: 23329
# Description: Animal models can also be used to measure SAR activity. For example, xenograft model using human cancer associated antigen described herein-specific SAR^+ T cells to treat a primary human pre-B-ALL in immunodeficient mice can be used. Dose dependent SAR treatment response can be evaluated. See, e.g., Milone et al., Molecular Therapy 17(S): 1453-1464 (2009). Assessment of cell proliferation and cytokine production has been previously described, e.g., at Milone et al., Molecular Therapy 17(S): 1453-1464 (2009). Cytotoxicity can be assessed by a standard ^51Cr-release assay or Matador assay. Imaging technologies can be used to evaluate specific trafficking and proliferation of SIRs in tumor-bearing animal models.
# The cells expressing the SAR constructs are exposed to RAJI and L363 target cells and tested in functional assays as described above. […] It is also observed that co-expression of the constant chains of both TCRγ and TCRδ can also rescue the expresson of SARs on TFP backbone in αβ T cells in which the expression of endogeneous TCRα and/or TCRβ constant chains has been eliminated by insertion of the SAR expresson cassette at the endogenous TRAC or/and TRBC loci. Exemplary constructs to express TCRγ and TCRδ chains are provided in SEQ ID NO: 23333 and 23334, respectively.
# [1] = tested on: target cell lines expressing a non-secretory form of a luciferase; assay: Assay for cytotoxic activity (Matador assay, luciferase release); format: cell-based; conditions: TRAC-targeted T cells, versus construct SEQ ID NO: 23329
# Procedure: Cell lines engineered to express luciferases (e.g., GLuc or NLuc) for measuring cytotoxicity of different constructs targeting different cell surface and intracellular antigens are provided in Table C-1. Cells were cultured at 37° C., in a 5% CO2 humidified incubator. The cell lines were obtained from ATCC, NIH AIDS reagent program or were available in the laboratory.
# The generation of Chimeric antigen receptor (e.g., 2nd generation CARs, SIRs, Ab-TCR and TFP etc.), the generation and use of GGS-NLuc fusion proteins (Topanga and Malibu-Glo assays), and the generation and use of luciferase (e.g., GLuc) reporter cell lines for measurement of cellular cytotoxicity using the Matador assays have been described (PCT/US2017/024843, PCT/US2017/025602, PCT/US2017/052344, PCT/US2017/064379 and PCT/US2018/53247).
# (C) Assay for Cytotoxic Activity in vitro and in vivo: The uninfected T cells or those expressing a control vector or SAR are cocultured with the target cell lines expressing a non-secretory form of a luciferase (such as GLuc, NLuc, Turboluc 16 etc.) for 4-96 hours and induction of cell lysis examined by measuring the luciferase activity as described in PCT/US17/52344.
# RAJI cells = assay: JNG assay, co-culture with RAJI cells; format: cell-based; conditions: JNG cells expressing construct, co-culture with Raji
# Procedure, shortened: (§1)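 Jurkat-NFAT-GFP (JNG) cells stably expressing SAR constructs via lentiviral transduction and puromycin/blasticidin selection were cocultured with target cells at E:T ~1:2 for ~4–18 h. NFAT-driven GFP was measured by FACS versus parental JNG cells; scores +/- to 5+ denote ~5–50% GFP-positive cells.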
# U266 cells = assay: JNG NFAT-GFP induction on co-culture with U266; format: cell-based
# Nalm6 cells = assay: JNG assay, co-culture with Nalm6 cells; format: cell-based; conditions: co-culture with Nalm6
# Procedure, shortened: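 Stable SAR lines in NFAT-GFP Jurkat background; coculture with target line ~4–18 h, E:T ~1:2; flow readout of GFP; positive if %GFP+ exceeds parental line; semi-quantitative grading +/- (~5%) through 5+ (~50%).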
# Raji-CD22-KO = assay: JNG NFAT-GFP assay, co-culture with Raji-CD22-KO cells; format: cell-based
# L363 cells = assay: JNG assay, co-culture with L363 cells; format: cell-based; conditions: co-culture with L363
# Procedure, shortened: as §1
molecule,measurement,setting,value
B1,NFAT-GFP ASSAY: HepG2,HepG2 cells,"RAJI (2+), HepG2 (-/^+)"
B2,in vivo anti-tumor activity against the target cells,target cells,greater
same,cytotoxicity,[1],greater
B3,NFAT-GFP ASSAY: Raji,RAJI cells,"2+ (refer to approximately 5%, 10%, 20%, 30%, 40% and 50% GFP positive cells)"
same,NFAT-GFP ASSAY: U266,U266 cells,"2+ (refer to approximately 5%, 10%, 20%, 30%, 40% and 50% GFP positive cells)"
same,NFAT-GFP ASSAY: Nalm6,Nalm6 cells,"+/- (refer to approximately 5%, 10%, 20%, 30%, 40% and 50% GFP positive cells)"
same,NFAT-GFP ASSAY: Raji-CD22-KO,Raji-CD22-KO,"3+ (refer to approximately 5%, 10%, 20%, 30%, 40% and 50% GFP positive cells)"
same,NFAT-GFP ASSAY: L363,L363 cells,"+ (refer to approximately 5%, 10%, 20%, 30%, 40% and 50% GFP positive cells)"
B4,NFAT-GFP ASSAY: HepG2,HepG2 cells,"RAJI (+/-), HepG2 (-/^+)"
